In US20100292442A1:

Assays:
[1] = target: huIL-17RA-FLAG-polyHis (human) (UniProt Q96F46); experiment: Luminex binning; bead mAb J holds IL-17RA
[2] = target: huIL-17RA-FLAG-polyHis (human) (UniProt Q96F46); experiment: Luminex binning; bead huIgG control (f15) + IL-17RA; self pair (boxed) [D00007 Fig. 8B]

normalized MFI [1]: 42
normalized MFI [2]: 65
Substance: huIgG (antibody)
